T1: cynomolgus IL-18BP (cynomolgus monkey)
T1 construct: also called cyno IL-18BP; cyIL-18BP
T1 chain: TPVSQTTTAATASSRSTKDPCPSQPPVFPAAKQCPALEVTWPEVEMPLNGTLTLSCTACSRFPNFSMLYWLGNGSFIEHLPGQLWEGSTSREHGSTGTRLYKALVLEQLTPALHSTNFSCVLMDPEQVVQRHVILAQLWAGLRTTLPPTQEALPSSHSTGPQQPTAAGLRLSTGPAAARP

T2: human IL-18BP (human, UniProt O95998 31-194)
T2 construct: UniProt printed as 095998; also called hIL-18BP
T2 sequence: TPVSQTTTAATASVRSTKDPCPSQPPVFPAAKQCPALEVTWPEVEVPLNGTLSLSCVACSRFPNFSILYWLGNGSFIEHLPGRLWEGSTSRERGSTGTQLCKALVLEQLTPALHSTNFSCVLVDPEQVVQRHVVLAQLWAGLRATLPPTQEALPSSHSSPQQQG

T3: human IL-18BP (human, UniProt O95998 31-194)
T3 construct: also called hIL-18BP; Mature Human Isoform A
T3 sequence: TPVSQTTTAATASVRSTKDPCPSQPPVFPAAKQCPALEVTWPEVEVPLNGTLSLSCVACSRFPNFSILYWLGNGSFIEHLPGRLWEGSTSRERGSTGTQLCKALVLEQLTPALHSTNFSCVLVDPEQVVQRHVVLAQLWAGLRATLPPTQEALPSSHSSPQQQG


Legend:
cynomolgus IL-18BP = molecular target: T1, cynomolgus IL-18BP; assay: BLI, apparent KD
human IL-18BP [1] = molecular target: T2, human IL-18BP; assay: BLI, apparent KD
human IL-18BP [2] = molecular target: T3, human IL-18BP; assay: BLI, apparent KD, one conc.

Binder | Kd (cynomolgus IL-18BP) | Kd (human IL-18BP [1]) | Kd (human IL-18BP [2])
SA301a HC-H52D (antibody, name in Kabat numbering, V domains shown, IgG1 kappa) VH: QVQLQESGPGLVKPSQTLSLTCTVSGYSITSDYNSHWIRQPPGKGLEWIGYIDYSGSTNYNPSLKSRVTISRDTSKNQFSLKLSSVTAADTAVYYCARNYGSIYVNYFDYWGQGTLVTVSS VL: EIVLTQSPATLSLSPGERATLSCSASSSVSYMYWYQQKPGQAPRPLIYRTSNLASGIPARFSGSGSGTDFTLTISSLEPEDFAVYYCQQYHSYPTFGGGTKVEIK | 0.91 nM | 0.35 nM | 
SA301a light chain variant V29Y (antibody, V domains shown) VH: QVQLQESGPGLVKPSQTLSLTCTVSGYSITSDYNSHWIRQPPGKGLEWIGYIHYSGSTNYNPSLKSRVTISRDTSKNQFSLKLSSVTAADTAVYYCARNYGSIYVNYFDYWGQGTLVTVSS VL: EIVLTQSPATLSLSPGERATLSCSASSSYSYMYWYQQKPGQAPRPLIYRTSNLASGIPARFSGSGSGTDFTLTISSLEPEDFAVYYCQQYHSYPTFGGGTKVEIK |  |  | 0.4 nM
SA301a light chain variant V29N (antibody, V domains shown) VH: QVQLQESGPGLVKPSQTLSLTCTVSGYSITSDYNSHWIRQPPGKGLEWIGYIHYSGSTNYNPSLKSRVTISRDTSKNQFSLKLSSVTAADTAVYYCARNYGSIYVNYFDYWGQGTLVTVSS VL: EIVLTQSPATLSLSPGERATLSCSASSSNSYMYWYQQKPGQAPRPLIYRTSNLASGIPARFSGSGSGTDFTLTISSLEPEDFAVYYCQQYHSYPTFGGGTKVEIK |  |  | 0.44 nM
SA301a light chain variant V29D (antibody, V domains shown) VH: QVQLQESGPGLVKPSQTLSLTCTVSGYSITSDYNSHWIRQPPGKGLEWIGYIHYSGSTNYNPSLKSRVTISRDTSKNQFSLKLSSVTAADTAVYYCARNYGSIYVNYFDYWGQGTLVTVSS VL: EIVLTQSPATLSLSPGERATLSCSASSSDSYMYWYQQKPGQAPRPLIYRTSNLASGIPARFSGSGSGTDFTLTISSLEPEDFAVYYCQQYHSYPTFGGGTKVEIK |  |  | 0.43 nM
SA301a light chain variant V29A (antibody, V domains shown) VH: QVQLQESGPGLVKPSQTLSLTCTVSGYSITSDYNSHWIRQPPGKGLEWIGYIHYSGSTNYNPSLKSRVTISRDTSKNQFSLKLSSVTAADTAVYYCARNYGSIYVNYFDYWGQGTLVTVSS VL: EIVLTQSPATLSLSPGERATLSCSASSSASYMYWYQQKPGQAPRPLIYRTSNLASGIPARFSGSGSGTDFTLTISSLEPEDFAVYYCQQYHSYPTFGGGTKVEIK |  |  | 0.4 nM
SA301a light chain variant V29L (antibody, V domains shown) VH: QVQLQESGPGLVKPSQTLSLTCTVSGYSITSDYNSHWIRQPPGKGLEWIGYIHYSGSTNYNPSLKSRVTISRDTSKNQFSLKLSSVTAADTAVYYCARNYGSIYVNYFDYWGQGTLVTVSS VL: EIVLTQSPATLSLSPGERATLSCSASSSLSYMYWYQQKPGQAPRPLIYRTSNLASGIPARFSGSGSGTDFTLTISSLEPEDFAVYYCQQYHSYPTFGGGTKVEIK |  |  | 0.33 nM
SA301a light chain variant V29M (antibody, V domains shown) VH: QVQLQESGPGLVKPSQTLSLTCTVSGYSITSDYNSHWIRQPPGKGLEWIGYIHYSGSTNYNPSLKSRVTISRDTSKNQFSLKLSSVTAADTAVYYCARNYGSIYVNYFDYWGQGTLVTVSS VL: EIVLTQSPATLSLSPGERATLSCSASSSMSYMYWYQQKPGQAPRPLIYRTSNLASGIPARFSGSGSGTDFTLTISSLEPEDFAVYYCQQYHSYPTFGGGTKVEIK |  |  | 0.35 nM
SA301a light chain variant V29G (antibody, V domains shown) VH: QVQLQESGPGLVKPSQTLSLTCTVSGYSITSDYNSHWIRQPPGKGLEWIGYIHYSGSTNYNPSLKSRVTISRDTSKNQFSLKLSSVTAADTAVYYCARNYGSIYVNYFDYWGQGTLVTVSS VL: EIVLTQSPATLSLSPGERATLSCSASSSGSYMYWYQQKPGQAPRPLIYRTSNLASGIPARFSGSGSGTDFTLTISSLEPEDFAVYYCQQYHSYPTFGGGTKVEIK |  |  | 0.41 nM
SA301a light chain variant V29R (antibody, V domains shown) VH: QVQLQESGPGLVKPSQTLSLTCTVSGYSITSDYNSHWIRQPPGKGLEWIGYIHYSGSTNYNPSLKSRVTISRDTSKNQFSLKLSSVTAADTAVYYCARNYGSIYVNYFDYWGQGTLVTVSS VL: EIVLTQSPATLSLSPGERATLSCSASSSRSYMYWYQQKPGQAPRPLIYRTSNLASGIPARFSGSGSGTDFTLTISSLEPEDFAVYYCQQYHSYPTFGGGTKVEIK |  |  | 0.38 nM
SA301a HC-I51D (antibody, name in Kabat numbering, V domains shown, IgG1 kappa) VH: QVQLQESGPGLVKPSQTLSLTCTVSGYSITSDYNSHWIRQPPGKGLEWIGYDHYSGSTNYNPSLKSRVTISRDTSKNQFSLKLSSVTAADTAVYYCARNYGSIYVNYFDYWGQGTLVTVSS VL: EIVLTQSPATLSLSPGERATLSCSASSSVSYMYWYQQKPGQAPRPLIYRTSNLASGIPARFSGSGSGTDFTLTISSLEPEDFAVYYCQQYHSYPTFGGGTKVEIK | 2.17 nM | 1.99 nM | 
SA301a HC-H52R (antibody, name in Kabat numbering, V domains shown, IgG1 kappa) VH: QVQLQESGPGLVKPSQTLSLTCTVSGYSITSDYNSHWIRQPPGKGLEWIGYIRYSGSTNYNPSLKSRVTISRDTSKNQFSLKLSSVTAADTAVYYCARNYGSIYVNYFDYWGQGTLVTVSS VL: EIVLTQSPATLSLSPGERATLSCSASSSVSYMYWYQQKPGQAPRPLIYRTSNLASGIPARFSGSGSGTDFTLTISSLEPEDFAVYYCQQYHSYPTFGGGTKVEIK | 1.55 nM | 1.36 nM | 
SA301a HC-H52G (antibody, name in Kabat numbering, V domains shown, IgG1 kappa) VH: QVQLQESGPGLVKPSQTLSLTCTVSGYSITSDYNSHWIRQPPGKGLEWIGYIGYSGSTNYNPSLKSRVTISRDTSKNQFSLKLSSVTAADTAVYYCARNYGSIYVNYFDYWGQGTLVTVSS VL: EIVLTQSPATLSLSPGERATLSCSASSSVSYMYWYQQKPGQAPRPLIYRTSNLASGIPARFSGSGSGTDFTLTISSLEPEDFAVYYCQQYHSYPTFGGGTKVEIK | 1.66 nM | 1.68 nM | 
SA301a HC-H52V (antibody, name in Kabat numbering, V domains shown, IgG1 kappa) VH: QVQLQESGPGLVKPSQTLSLTCTVSGYSITSDYNSHWIRQPPGKGLEWIGYIVYSGSTNYNPSLKSRVTISRDTSKNQFSLKLSSVTAADTAVYYCARNYGSIYVNYFDYWGQGTLVTVSS VL: EIVLTQSPATLSLSPGERATLSCSASSSVSYMYWYQQKPGQAPRPLIYRTSNLASGIPARFSGSGSGTDFTLTISSLEPEDFAVYYCQQYHSYPTFGGGTKVEIK | 0.88 nM | 0.34 nM | 
SA301a HC-I51E (antibody, name in Kabat numbering, V domains shown, IgG1 kappa) VH: QVQLQESGPGLVKPSQTLSLTCTVSGYSITSDYNSHWIRQPPGKGLEWIGYEHYSGSTNYNPSLKSRVTISRDTSKNQFSLKLSSVTAADTAVYYCARNYGSIYVNYFDYWGQGTLVTVSS VL: EIVLTQSPATLSLSPGERATLSCSASSSVSYMYWYQQKPGQAPRPLIYRTSNLASGIPARFSGSGSGTDFTLTISSLEPEDFAVYYCQQYHSYPTFGGGTKVEIK | 0.95 nM | 1.53 nM | 
SA301a HC-H52I (antibody, name in Kabat numbering, V domains shown, IgG1 kappa) VH: QVQLQESGPGLVKPSQTLSLTCTVSGYSITSDYNSHWIRQPPGKGLEWIGYIIYSGSTNYNPSLKSRVTISRDTSKNQFSLKLSSVTAADTAVYYCARNYGSIYVNYFDYWGQGTLVTVSS VL: EIVLTQSPATLSLSPGERATLSCSASSSVSYMYWYQQKPGQAPRPLIYRTSNLASGIPARFSGSGSGTDFTLTISSLEPEDFAVYYCQQYHSYPTFGGGTKVEIK | 1.72 nM | 0.53 nM | 
SA301a HC-I51A (antibody, name in Kabat numbering, V domains shown, IgG1 kappa) VH: QVQLQESGPGLVKPSQTLSLTCTVSGYSITSDYNSHWIRQPPGKGLEWIGYAHYSGSTNYNPSLKSRVTISRDTSKNQFSLKLSSVTAADTAVYYCARNYGSIYVNYFDYWGQGTLVTVSS VL: EIVLTQSPATLSLSPGERATLSCSASSSVSYMYWYQQKPGQAPRPLIYRTSNLASGIPARFSGSGSGTDFTLTISSLEPEDFAVYYCQQYHSYPTFGGGTKVEIK | 0.81 nM | 0.73 nM | 
SA301a HC-H52N (antibody, name in Kabat numbering, V domains shown, IgG1 kappa) VH: QVQLQESGPGLVKPSQTLSLTCTVSGYSITSDYNSHWIRQPPGKGLEWIGYINYSGSTNYNPSLKSRVTISRDTSKNQFSLKLSSVTAADTAVYYCARNYGSIYVNYFDYWGQGTLVTVSS VL: EIVLTQSPATLSLSPGERATLSCSASSSVSYMYWYQQKPGQAPRPLIYRTSNLASGIPARFSGSGSGTDFTLTISSLEPEDFAVYYCQQYHSYPTFGGGTKVEIK | 2.83 nM | 1.04 nM | 
SA301a HC-I51F (antibody, name in Kabat numbering, V domains shown, IgG1 kappa) VH: QVQLQESGPGLVKPSQTLSLTCTVSGYSITSDYNSHWIRQPPGKGLEWIGYFHYSGSTNYNPSLKSRVTISRDTSKNQFSLKLSSVTAADTAVYYCARNYGSIYVNYFDYWGQGTLVTVSS VL: EIVLTQSPATLSLSPGERATLSCSASSSVSYMYWYQQKPGQAPRPLIYRTSNLASGIPARFSGSGSGTDFTLTISSLEPEDFAVYYCQQYHSYPTFGGGTKVEIK | 1.55 nM | 2.38 nM | 
SA301a HC-I51G (antibody, name in Kabat numbering, V domains shown, IgG1 kappa) VH: QVQLQESGPGLVKPSQTLSLTCTVSGYSITSDYNSHWIRQPPGKGLEWIGYGHYSGSTNYNPSLKSRVTISRDTSKNQFSLKLSSVTAADTAVYYCARNYGSIYVNYFDYWGQGTLVTVSS VL: EIVLTQSPATLSLSPGERATLSCSASSSVSYMYWYQQKPGQAPRPLIYRTSNLASGIPARFSGSGSGTDFTLTISSLEPEDFAVYYCQQYHSYPTFGGGTKVEIK | 0.87 nM | 0.92 nM | 
SA301a HC-H52S (antibody, name in Kabat numbering, V domains shown, IgG1 kappa) VH: QVQLQESGPGLVKPSQTLSLTCTVSGYSITSDYNSHWIRQPPGKGLEWIGYISYSGSTNYNPSLKSRVTISRDTSKNQFSLKLSSVTAADTAVYYCARNYGSIYVNYFDYWGQGTLVTVSS VL: EIVLTQSPATLSLSPGERATLSCSASSSVSYMYWYQQKPGQAPRPLIYRTSNLASGIPARFSGSGSGTDFTLTISSLEPEDFAVYYCQQYHSYPTFGGGTKVEIK | 1.16 nM | 0.63 nM | 

Source: patent US20250368745A1 (published 2025)
